The record followed here is patent US20150337046A1 (Kyowa Kirin, published 2015).

In test [1] the target is T1, human LIGHT (hLIGHT), cell surface-expressed, full length (human, UniProt O43557 1-240).
T1 construct: also called native hLIGHT on the cell surface; EL4-hLIGHT
Briefly: flow cytometry on hLIGHT-transfected cells. (In flow cytometry, cells or beads pass a laser one at a time.)

The target of test [2] is T2, hLIGHT SNP variant 214E-32S, cell surface-expressed on EL4 cells (human, UniProt O43557 1-240). The experiment in a line: flow cytometry at 10 µg/ml antibody on EL4 SNP cell lines.
Description: (§1) Binding was detected with goat anti-human IgG-APC secondary antibody. Isotype control human IgG was used as a negative control.
The target in test [3] is T3, hLIGHT SNP variant 214K-32S, cell surface-expressed on EL4 cells (human, UniProt O43557 1-240). Briefly: flow cytometry at one antibody concentration on EL4 SNP 214K cell line.
Description: as §1
For test [4], the target named is T4, soluble FLAG-tagged recombinant hLIGHT (native, untreated) (human, UniProt O43557 66-240).
T4 construct: N-terminal FLAG tag followed by hLIGHT extracellular region Gly66 to Val240; also called soluble hLIGHT; FLAG-hLIGHT
T4 chain: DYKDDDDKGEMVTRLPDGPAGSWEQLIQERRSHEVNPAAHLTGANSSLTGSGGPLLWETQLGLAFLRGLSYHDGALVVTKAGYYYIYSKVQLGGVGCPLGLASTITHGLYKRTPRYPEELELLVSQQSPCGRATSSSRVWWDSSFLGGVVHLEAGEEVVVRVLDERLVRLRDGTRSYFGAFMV
The experiment in a line: dot blot: serial dilutions of native soluble hLIGHT on PVDF, probed with 5 µg/ml antibody, chemiluminescence.
Protocol: Each blot was probed with 5 μg/ml of each primary antibody. […] The blots were washed 3× in 1×TBST followed by super SA-HRP (Amersham Biosciences, Piscataway, N.J.). Chemiluminescence was used for detection using the ECL detection kit (Amersham Biosciences, Piscataway, N.J.) and signal was visualized by exposure to X-OMAT AR imaging film (Kodak, Rochester, N.Y.). […] An anti-M2 (irrelevant antigen) antibody was used as a negative control.
Five micrograms of soluble human LIGHT was either boiled in 2×SDS sample buffer (denatured) or untreated (native), and then both were serially diluted in 6× increments. 5 μl of each hLIGHT dilution was spotted simultaneously onto hydrated 0.2 μm PVDF membranes (Invitrogen, Carlsbad, Calif.) using an 8 multi-channel pipette. […] Each blot was probed with 5 μg/ml of each primary antibody (see below). […] The blots were washed 3×in 1×TBST followed by super SA-HRP (Amersham Biosciences, Piscataway, N.J.). Chemiluminescence was used for detection using the ECL detection kit (Amersham Biosciences, Piscataway, N.J.) and signal was visualized by exposure to X-OMAT AR imaging film (Kodak, Rochester, N.Y.)

For test [5], the target named is T5, hLIGHT SNP variant 214E-32L, cell surface-expressed on EL4 cells (human, UniProt O43557 1-240).
T5 construct: also called cytoplasmic SNP
T5 chain: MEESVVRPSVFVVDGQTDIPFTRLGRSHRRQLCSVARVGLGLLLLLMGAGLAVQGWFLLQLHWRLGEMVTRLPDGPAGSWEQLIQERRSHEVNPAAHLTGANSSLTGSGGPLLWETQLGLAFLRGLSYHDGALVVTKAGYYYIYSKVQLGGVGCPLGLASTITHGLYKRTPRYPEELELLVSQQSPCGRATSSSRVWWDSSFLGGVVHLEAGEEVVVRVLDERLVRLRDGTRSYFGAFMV
The experiment in a line: flow cytometry dose titration on EL4 cells expressing the SNP variant.
Protocol: (§2) For FIG. 25A-25D, the geometric mean fluorescence intensity (MFI) was determined and non-linear regression analysis applied.

The target of test [6] is T2, hLIGHT SNP variant 214E-32S, cell …. The description is as above.
Protocol: as §2
Test [7] addresses T1, human LIGHT (hLIGHT), cell …. The experiment in a line: flow cytometry on HEK 293-hLIGHT cells.
The target in test [8] is T3, hLIGHT SNP variant 214K-32S, cell …. The experiment in a line: flow cytometry dose titration on EL4 cells expressing 214K-32S.
Protocol: as §2

B1: E63 antibody (produced by hybridoma 124 E63, ATCC Accession No. PTA-7818) (antibody, V domains shown)
VH: QVQLQESGPGLVKPSETLSLTCIVSGGSVSSGGYYWSWIRQPPGKGLEWIGYIYYSGSTNYNPSLKSRVTISVDTSKNQFSLKLSSVTAADTAVYYCARWITMFRGVGFDPWGQGTLVTVSS
VL: EIVLTQSPDFQSVTPKEKVTITCRASQSIGSSLHWYQQKPDQSPKLLIKYASQSFSGVPSRFSGSGSGTDFTLTINSLEAEDAAAYYCHQSSSLPLTFGGGTKVEIK
notes: a recombinant IgG1 version (E63G1) was also made
Regarding B1, the results for the binding result in test [1], in test [2] and in test [3] were “binds”, “binds” and “no binding (tested: 10 µg/ml)”, respectively. In addition, the “lowest limit of detection” value in test [4] was 3.9 ng.

B2: E1 antibody (produced by hybridoma 124 E1, ATCC Accession No. PTA-7729) (antibody, V domains shown)
VH: EVQLVESGGGLVQPGGSLRLSCAASGFTFSRFNMNWVRQAPGKGLEWVSYISSSSYTIYYADSVKGRFTISRDNAKNSLDLQMNSLRDEDTAVYYCARSIAAAFDYWGQGALVTVSS
VL: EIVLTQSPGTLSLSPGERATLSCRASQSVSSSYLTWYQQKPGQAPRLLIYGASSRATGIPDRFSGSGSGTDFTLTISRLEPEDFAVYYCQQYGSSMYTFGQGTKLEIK
notes: Fully human IgG1 purified from hybridoma culture
Regarding B2, in test [4], the “lowest limit of detection” value came to 23 ng.

B3: recombinant single kappa chain antibody of E1 heavy chain paired with Elkappa(B) (antibody, V domains shown)
VH: B2 VH
VL: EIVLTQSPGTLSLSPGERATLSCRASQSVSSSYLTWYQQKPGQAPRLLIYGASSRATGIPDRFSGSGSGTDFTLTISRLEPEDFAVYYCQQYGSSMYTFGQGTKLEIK
notes: also called E1kappa(B); 124Elkappa(B)
As for B3, the binding result in test [5] was “binds”; in test [6], “binds”; in test [7], “binds”; in test [8], “no binding”.

B4: F23 antibody (produced by hybridoma 124 F23, ATCC Accession No. PTA-7728) (antibody, V domains shown)
VH: QVQLQQWGAGLLKPSETLSLTCAVYGGSFSGYYWNWIRQPPGKGLEWIGEINQYNPSLKSRVTISVDTSKNQFSLKLSSVTAADTAVYYCAREIATADKGYYGLDVWGQGTTVTVSS
VL: AIQLTQSPSSLSASVGDRVTITCRASQGISSALAWYQQKPGKAPKLLIYDASSLESGVPSRFSGSGSGTDFTLTISSLQPEDFATYYCQQFNSYPLTFGGGTKVEIK
notes: Residue ranges without leader are those stated in claim 28 (CLM-00028)
In the case of B4, the “lowest limit of detection” value in test [4] was found to be 23 ng.
